According to PMC5672941:

Target: SpyTag fused to an elastin-like polypeptide with a C-terminal cysteine
Experiment: core-shell assembly of protein-coated particles

In the case of “SpyCatcher fused to an elastin-like polypeptide with a C-terminal cysteine (designed binder)”, the percent of the core aggregate surface occupied by green (shell) particles is reported as 60%.
